Reference: patent US20220275103A1 (CENTRICSBIO, published 2022)

Key:
mouse CD300c antigen = molecular target: T1, mouse CD300c antigen (mouse); experiment: cell-based or functional assay
T1 sequence (A2A7V7 whole entry, looked up): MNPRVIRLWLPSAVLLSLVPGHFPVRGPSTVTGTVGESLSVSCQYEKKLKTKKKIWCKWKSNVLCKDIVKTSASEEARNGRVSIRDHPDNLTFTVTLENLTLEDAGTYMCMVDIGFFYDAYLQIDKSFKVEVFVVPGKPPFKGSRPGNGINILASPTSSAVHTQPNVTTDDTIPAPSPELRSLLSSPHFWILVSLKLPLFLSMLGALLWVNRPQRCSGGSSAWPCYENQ

[1] = molecular target: T2, CD300a antigen (12449-H08H, Sino Biological) (UniProt Q9UGN4 18-180); experiment: binding ELISA, antigens coated at 8 ug/mL, HRP anti-Fc IgG, O.D 450 nm
T2 sequence (looked up): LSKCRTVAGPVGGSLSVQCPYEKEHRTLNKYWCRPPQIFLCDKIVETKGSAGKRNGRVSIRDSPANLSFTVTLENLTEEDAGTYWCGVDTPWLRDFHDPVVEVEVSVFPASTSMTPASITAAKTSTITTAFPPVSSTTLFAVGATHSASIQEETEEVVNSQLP
Method: (§1) Binding ELISA was performed to identify that the anti-CD300c monoclonal antibody CL7 specifically binds only to CD300c without binding to other B7 family proteins. More specifically, each of CD300c antigen, CD300a antigen, or seven B7 family protein antigens (PD-L1 [B7-H1] (Sino Biological), ICOS Ligand[B7-H2] (Sino Biological), CD276[B7-H3] (Sino Biological), B7-H4 (Sino Biological), CD80[B7-1] (Sino Biological), CD86[B7-2] (Sino Biological), CD273[PD-L2] (Sino Biological)) in a coating buffer (0.1 M sodium carbonate, pH 9.0) was coated on an ELISA plate at a concentration of 8 μg/mL per well, and then incubation was performed at 2° C. to 8° C. overnight so that the antigen bound to the plate. The unbound antigen was removed by performing washing with PBST three times, and then […] of blocking buffer (5% skim milk in PBST) was added to each well. Subsequently, blocking was performed at room temperature for 1 hour, and then washing was performed again with PBST. Thereafter, CL7 was diluted in quadruplicate with PBS, and subjected to reaction with the antigen at room temperature for 1 hour for antigen binding. 1 hour later, washing with PBST was performed three times. Then, a secondary antibody (HRP-conjugated anti-Fc IgG) diluted to 4 μg/mL in blocking buffer was added thereto, and reaction was allowed to proceed at room temperature for 1 hour. Subsequently, the unbound antibody for detection was removed using PBST, and then a TMB solution was added thereto. Reaction was allowed to proceed for 10 minutes for development. Then, 2 N sulfuric acid solution was added to terminate the development, and the absorbance was measured at 450 nm to identify the antibody that specifically binds to the CD300c antigen.

[2] = molecular target: PD-L1 [B7-H1] (Sino Biological) (UniProt Q9NZQ7 19-239, limits assumed); experiment: as above
Sequence of PD-L1 [B7-H1] (Sino Biological) (Q9NZQ7 19-239 limits assumed): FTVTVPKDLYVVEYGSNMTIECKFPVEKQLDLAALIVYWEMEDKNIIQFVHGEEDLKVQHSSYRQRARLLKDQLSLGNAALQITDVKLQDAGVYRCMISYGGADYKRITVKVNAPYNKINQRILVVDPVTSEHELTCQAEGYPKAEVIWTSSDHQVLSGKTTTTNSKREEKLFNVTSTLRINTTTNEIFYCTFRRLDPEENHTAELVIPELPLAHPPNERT
Method: as §1

[3] = molecular target: T3, ICOS Ligand[B7-H2] (Sino Biological) (UniProt O75144 19-258, limits assumed); experiment: as above
T3 sequence (looked up): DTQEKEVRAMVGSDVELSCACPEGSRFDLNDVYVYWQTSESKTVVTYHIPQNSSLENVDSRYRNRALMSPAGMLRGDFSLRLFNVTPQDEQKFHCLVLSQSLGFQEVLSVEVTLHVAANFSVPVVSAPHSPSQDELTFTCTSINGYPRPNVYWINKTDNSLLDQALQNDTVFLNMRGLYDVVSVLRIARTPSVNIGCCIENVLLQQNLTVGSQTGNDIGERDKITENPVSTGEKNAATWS
Method: as §1

[4] = molecular target: T4, CD276[B7-H3] (Sino Biological) (UniProt Q5ZPR3 29-461, limits assumed); experiment: as above
T4 sequence (looked up): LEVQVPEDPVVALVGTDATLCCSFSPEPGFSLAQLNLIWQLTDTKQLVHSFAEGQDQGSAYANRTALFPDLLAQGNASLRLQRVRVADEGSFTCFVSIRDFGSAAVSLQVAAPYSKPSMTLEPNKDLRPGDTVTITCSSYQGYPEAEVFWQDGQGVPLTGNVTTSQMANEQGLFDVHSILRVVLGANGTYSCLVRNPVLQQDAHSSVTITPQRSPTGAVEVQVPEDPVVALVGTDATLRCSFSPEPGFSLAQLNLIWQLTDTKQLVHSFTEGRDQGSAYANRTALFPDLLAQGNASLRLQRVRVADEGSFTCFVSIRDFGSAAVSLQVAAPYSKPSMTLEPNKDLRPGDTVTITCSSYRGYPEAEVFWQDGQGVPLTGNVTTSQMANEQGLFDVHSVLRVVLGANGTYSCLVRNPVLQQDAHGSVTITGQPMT
Method: as §1

B7-H4 (Sino Biological) = molecular target: T5, B7-H4 (Sino Biological) (UniProt Q7Z7D3 25-258, limits assumed); experiment: as above
T5 sequence (looked up): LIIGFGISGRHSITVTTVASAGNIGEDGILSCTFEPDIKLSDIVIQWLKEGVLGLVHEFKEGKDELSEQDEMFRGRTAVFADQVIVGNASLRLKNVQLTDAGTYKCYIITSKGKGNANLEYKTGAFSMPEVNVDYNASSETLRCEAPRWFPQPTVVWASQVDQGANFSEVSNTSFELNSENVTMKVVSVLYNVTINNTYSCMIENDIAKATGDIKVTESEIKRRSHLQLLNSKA
Method: as §1

[5] = molecular target: T6, CD80[B7-1] (Sino Biological) (UniProt P33681 35-242, limits assumed); experiment: as above
T6 sequence (looked up): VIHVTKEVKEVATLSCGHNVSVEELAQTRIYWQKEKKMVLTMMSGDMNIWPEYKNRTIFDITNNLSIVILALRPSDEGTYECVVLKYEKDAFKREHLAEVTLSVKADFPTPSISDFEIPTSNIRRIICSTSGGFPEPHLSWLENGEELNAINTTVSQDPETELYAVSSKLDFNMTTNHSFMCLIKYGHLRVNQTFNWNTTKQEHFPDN
Method: as §1

[6] = molecular target: T7, CD86[B7-2] (Sino Biological) (UniProt P42081 24-247, limits assumed); experiment: as above
T7 sequence (looked up): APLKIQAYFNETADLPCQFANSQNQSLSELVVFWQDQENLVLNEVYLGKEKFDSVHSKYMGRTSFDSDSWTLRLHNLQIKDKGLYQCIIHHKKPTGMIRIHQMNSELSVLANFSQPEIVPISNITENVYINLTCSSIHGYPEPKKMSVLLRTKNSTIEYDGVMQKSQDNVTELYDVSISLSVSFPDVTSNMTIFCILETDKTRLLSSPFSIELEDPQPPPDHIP
Method: as §1

[7] = molecular target: T8, CD273[PD-L2] (Sino Biological) (UniProt Q9BQ51 20-219, limits assumed); experiment: as above
T8 sequence (looked up): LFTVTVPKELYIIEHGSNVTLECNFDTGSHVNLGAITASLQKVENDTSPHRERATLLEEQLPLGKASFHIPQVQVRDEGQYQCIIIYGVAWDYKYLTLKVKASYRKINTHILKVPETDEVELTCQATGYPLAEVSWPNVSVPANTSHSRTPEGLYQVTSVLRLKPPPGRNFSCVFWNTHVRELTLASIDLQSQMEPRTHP
Method: as §1

B1: CL7 (antibody, V domains shown)
VH: EVQLLESGGGLVQPGGSLRLSCAASGFTFSRYAMSWVRQAPGKGLEWVSAISGSGGSTYYADSVKGRFTISRDNSKNTLYLQMNSLRAEDTAVYYCARSSQGIFDIWGQGTLVTVSS
VL: QSVLTQPPSASGTPGQRVTISCSGNNIGTRRVHWYQQLPDTAPKLLIYSKNNRPSGVPDRFSGSKSGTSASLAISGLRSEDEADYYCAAWDDSLSGPVFGGGTKLTVL
notes: VH3VL1 phage library clone; also called anti-CD300c monoclonal antibody CL7; CB301 antibody CL7
With B1 the “cancer cell proliferation inhibitory effect on CT26 mouse colorectal cancer cells (CCK-8, 10 ug/mL antibody, 5 days), higher than the control group” value (mouse CD300c antigen) was 66%, the binding result [1] was “no binding (tested: log10 about 0.4 (about 2.5 ug/ml))” and the binding result [2] was “no binding (tested: log10 about 0.4 (about 2.5 ug/ml))”. B1: no binding (tested: log10 about 0.4 (about 2.5 ug/ml)) [3]; no binding (tested: log10 about 0.4 (about 2.5 ug/ml)) [4]; no binding (tested: log10 about 0.4 (about 2.5 ug/ml)) (B7-H4 (Sino Biological)). B1: no binding (tested: log10 about 0.4 (about 2.5 ug/ml)) [5]; no binding (tested: log10 about 0.4 (about 2.5 ug/ml)) [6]; no binding (tested: log10 about 0.4 (about 2.5 ug/ml)) [7].

B2: CL10 (antibody, V domains shown)
VH: EVQLLESGGGLVQPGGSLRLSCAASGFTFSSYGMHWVRQAPGKGLEWVSAISGSGGSTYYADSVKGRFTISRDNSKNTLYLQMNSLRAEDTAVYYCASGYGLMDVWGQGTLVTVSS
VL: QSVLTQPPSASGTPGQRVTISCTRSSGIIASNYVQWYQQLPGTAPKLLIYRNNQRPSGVPDRFSGSKSGTSASLAISGLRSEDEADYYCSSYAGNNNLVFGGGTKLTVL
For B2, the “cancer cell proliferation inhibitory effect on CT26 mouse colorectal cancer cells (CCK-8, 10 ug/mL antibody, 5 days), higher than the control group” value (mouse CD300c antigen) was 15%.

B3: SL18 (antibody, V domains shown)
VH: RVQLLESGGGLVQPGGSLRLSCAASGFTFSDYHMHWVRQAPGKGLEWVSTISSSGGYTYYAESVKSRFTISRDNSKNTLYLQMNSLRAEDTAVYYCARSIRLPLDYWGQGTLVTVSS
VL: QSVLTQPPSASGTPGQRVTISCSGNNIGSKGVHWYQQLPGTAPKLLIYEDSKRPSGVRDRFSGSKSGTSASLAISGLRSEDEADYYCQSYDSTKGVVFGGGTKLTVL
In the case of B3, the “cancer cell proliferation inhibitory effect on CT26 mouse colorectal cancer cells (CCK-8, 10 ug/mL antibody, 5 days), higher than the control group” value (mouse CD300c antigen) is reported as 38%.
